{
  "source": "paper PMC5557760",
  "target": "T1, PtpA (Mycobacterium tuberculosis) (UniProt P9WIA1)",
  "T1 sequence": "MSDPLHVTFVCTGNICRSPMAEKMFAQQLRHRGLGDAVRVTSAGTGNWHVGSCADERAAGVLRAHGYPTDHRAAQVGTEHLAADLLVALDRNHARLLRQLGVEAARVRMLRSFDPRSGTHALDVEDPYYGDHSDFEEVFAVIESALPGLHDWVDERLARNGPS",
  "experiment": "competition",
  "details": "EMSA: 10 ug PtpA, 10 nM biotin-labeled DNA, Beyotime GS009 binding buffer (salt, pH not stated), 20 min, room temperature, 15% native PAGE",
  "data": [
    {"sequence": "CCTTAAAACAAAAGACATGAAAAGATAATAAGAAAAAAGTGCCGCAACTATTATAGAAAAACACTTGGCAGCCTGCTTCAGCCCAAGCTGAGGCCACCTCTAGCCTCTGCTAAAGCCCCCCACTCCCAATGGTCCCCGCCAACCGGATAA (double strand) [GADD45A promoter -250 to -100, unlabeled negative competitor]", "values": [
      {"measurement": "binding", "result": "no binding"}
    ]}
  ]
}
